Consider 11 molecules from US20150329642A1 (Genmab, published 2015).

Test [1] has as its target T1, human c-Met, membrane-bound on cells (human, UniProt P08581 25-1390).
T1 construct: whole, on cells; A431 cells carry on average 30,000 copies of c-Met per cell (Qifi); also called c-Met expressed on A431 cells; c-Met on A549 cells
Briefly: flow cytometry on A431 cells (PE goat anti-human IgG); second panel. As for the experimental part: (§1) The binding of anti-c-Met antibodies and monovalent forms thereof (also termed “UniBody molecules” herein, see Example 5) to A431 cells expressing membrane-bound c-Met (purchased at ATCC, CRL-1555) was tested using flow cytometry (FACS Canto II, BD Biosciences). […] Binding of anti-c-Met antibodies and UniBody molecules was detected using a Phycoerythrin-conjugated goat-anti-human IgG antibody (Jackson). IgG1-5D5 was used as positive control antibody, and HuMab-KLH was used as isotype control antibody. EC₅₀ values were determined by means of non-linear regression (sigmoidal dose-response with variable slope) using GraphPad Prism V4.03 software (GraphPad Software, San Diego, Calif., USA).
(§2) Also maximum binding levels were unchanged between IgG1's and UniBody molecules. For antibodies 005, 006, 008, 035, 045 and 058, on the other hand, a more than 2-fold […] as well as a decrease in maximum binding level was observed when comparing IgG1 with their UniBody counterpart. This was most likely due to the […] (Kd) of these antibodies (see Example 14).

For test [2], the target named is T1, human c-Met, membrane-bound on cells. The test is described as follows: flow cytometry on A431 cells (PE goat anti-human IgG); third panel. As for the experimental part:
as §1, §2

Test [3] shares this target. Briefly: flow cytometry on A431 cells (PE goat anti-human IgG); third panel; curve not saturated. The procedure:
as §1, §2

Test [4] shares this target. The test is described as follows: flow cytometry on A431 cells (PE goat anti-human IgG); bottom panel. The procedure: as §1, §2
The target of test [5] is T2, recombinant human c-Met extracellular domain (R&D systems) (human, UniProt P08581 25-932).
T2 construct: extracellular domain; Bought reagent; also called coated extracellular domain of c-Met; recombinant c-Met
The test is described as follows: competition ELISA on coated recombinant c-Met extracellular domain; blocked ligand Europium-conjugated HGF; column headed EC50 on the sheet, called IC50 in paragraph 270; lower panel. The procedure:
ELISA wells were coated overnight at 4° C. with 0.5 μg/mL recombinant human c-Met extracellular domain (R&D systems, Minneapolis, USA) diluted in PBS. Next, the ELISA wells were washed with PBST (PBS supplemented with 0.05% Tween-20 [Sigma-Aldrich, Zwijndrecht, The Netherlands]) and blocked for one hour at room temperature (RT) with PBST supplemented with 2% (v/v) chicken serum (Gibco, Paisley, Scotland). […] Mean fluorescence intensity at 615 nm was measured using the EnVision 2101 Multilabel reader (PerkinElmer) applying the following settings: Lance/Delfia dual mirror, emission filter 615, excitation filter 340 nm, delay time 400 μs, window 400 μs, 100 flashes, 2000 μs per cycle and bidirectional row-by-row reading. To determine IC₅₀ values, the binding curves were analyzed with non-linear regression (sigmoidal dose-response with variable slope, top-values constrained to a shared value for all data-sets) using GraphPad Prism V4.03 software (GraphPad Software, San Diego, Calif., USA).
FIG. 5 depicts representative examples of HGF binding inhibition curves of anti-c-Met antibodies for binding to the extracellular domain of recombinant human c-Met. 5D5 was used as positive control antibody. All anti-c-Met antibodies in the experiment shown were able to compete with Europium^{3±}-conjugated HGF for binding to recombinant c-Met. […] Without adding Europium³⁺-conjugated HGF, roughly ˜600 relative fluorescent units (RFU) were detected, indicating the signal when maximal inhibition is accomplished. When binding of Europium³⁺-conjugated HGF was not inhibited, approximately ˜66,000 RFU were detected.

For test [6], the target named is T1, human c-Met, membrane-bound on cells. Briefly: flow cytometry on A431 cells (PE goat anti-human IgG); top panel. The procedure:
as §1, §2

Test [7] has as its target T3, rhHGF R/Fc Chimera (R&D Systems; Cat.358MT/CF) (human, UniProt P08581 25-932).
T3 construct: Bought reagent; Fc part of the bought chimera not given; not described
The test is described as follows: ELISA on coated rhHGF R/Fc Chimera. The procedure: c-Met binding properties of the mutants were tested in an ELISA. ELISA plate wells were coated overnight at 4° C. with rhHGF R/Fc Chimera (R&D Systems; Cat.358MT/CF) in PBS (1 μg/mL). Next, the wells were washed with PBST (PBS supplemented with 0.05% Tween-20 [Sigma-Aldrich, Zwijndrecht, The Netherlands]) and blocked for one hour at room temperature (RT) with PBSTC (PBST supplemented 2% [v/v] chicken serum [Gibco, Paisley, Scotland]). Subsequently, the wells were washed with PBST and incubated for one hour at RT with the anti-cMet antibodies and variants serially diluted in PBSTC (10 μg/mL in 4-fold dilutions). […] After washing, the reaction was visualized by a 15 min incubation with 2,2′-azino-bis(3-ethylbenzothiazoline-6-sulfonic acid) (ABTS: dilute one ABTS tablet in 50 mL ABTS buffer [Roche Diagnostics, Almere, The Netherlands]) at RT protected from light. The colorization was stopped by adding an equal volume of oxalic acid (Sigma-Aldrich, Zwijndrecht, The Netherlands). […] at 405 nm was measured on a microtiter plate reader (Biotek Instruments, Winooski, USA).

Numbering of substitutions follows the chain as printed. Values joined by “and” are separate entries in the source; they are usually repeats but may differ in a detail not shown here. Equal entries are not always repeated.

B1: anti-c-Met HuMab 008 (IgG1) (antibody, V domains shown)
VH: EVQLVQSGAEVKKPGESLKISCKGSGYSFTSYWIGWVRQMPGKGLEWMGIIYPGDSETRYSPSFQGQVTISADKSISTAYLQWSSLKASDTAMYYCARQEITGEFDYWGQGTLVTVSS
VL: AIQLTQSPSSLSASVGDRVTITCRASQGISSALAWYQQKPGKAPKLLIYDASSLESGVPSRFSGSGSGTDFTLTISSLQPEDFATYYCQQFNSYPRTFGQGTKVEIK
notes: also called TH1016-008; PC1016-008
On to B1, for which the EC50 in test [1] came to 0.554 nM.

B2: anti-c-Met HuMab 035 (IgG1) (antibody, V domains shown)
VH: B1 VH with E57D, S84N
VL: AIQLTQSPSSLSASVGDRVTITCRASQGISSALAWYQQKPGKAPKLLIYDASSLESGVPSRFSGSGSGTDFTLTISSLQPEDFATYYCQQFNSYPMYTFGQGTKLEIK
notes: also called P1016-035; TH1016-035-D09
B2 gave a concentration giving a half-maximal response (EC50) in test [2] of 1.78 nM.

B3: anti-c-Met HuMab 045 (IgG1) (antibody, V domains shown)
VH: EVQLLESGGGLVQPGGSLRLSCAASGFTFSSYAMSWVRQAPGKGLEWVSVISGSGGITYYADSVKGRFTISRDNSKNTLYLQMNSLRAEDTAVYYCARDRGWGSDYWGQGTLVTVSS
VL: EIVLTQSPATLSLSPGERATLSCRASQSVSSYLAWYQQKPGQAPRLLIYDASNRATGIPARFSGSGSGTDFTLTISSLEPEDFAVYYCQQRSNWPFTFGPGTKVDIK
notes: also called TH1016-045; PC1016-045
In test [2], B3 registered an EC50 of 0.692 nM.

B4: IgG1-024 (antibody, V domains shown)
VH: EVQLLESGGGLVQPGGSLRLSCVASGFTFSSYAMSWVRQAPGKGLEWVSAISGSSGGSTYYVDSVKGRFTISRANSKNTLYLQMNSLRAEDTAVYYCAKDLDRGWMGYFGYWGQGTLVTVSS
VL: DIQMTQSPSSVSASVGDRVTITCRASQGISSWLAWYQHKPGKAPKLLIYAASSLQSGVPSRFSGSGSGTDFTLTISSLQPEDFATYYCQQANSFPTFGQGTRLEIK
notes: also called TH1016-024; PC1016-024
For the molecule B4, the EC50 in test [3] was around 3.19 nM.

B5: anti-c-Met HuMab 005 (IgG1) (antibody, V domains shown)
VH: QVQLVQSGAEVKKPGSSVKVSCKASGGTFSSYGFGWVRQAPGQGLEWMGRISPILGIANYAQMFQGRVTITADKSTSTAYMELSSLRSEDTAVYYCARDVGYDWPDTFDIWGQGTMVIVSS
VL: DIQMTQSPSSLSASVGDRVTITCRASQGISSWLAWYQQKPEKAPKSLIYAASSLQSGVPSRFSGGGSGTDFTLTISSLQPEDFATYYCQQYNSFPPTFGQGTKVEIK
notes: also called TH1016-005; PC1016-005
In test [1], B5 came in with an EC50 of 1.56 nM.

B6: anti-c-Met HuMab 098 (IgG1) (antibody, V domains shown)
VH: QVQLVQSGAEVKKPGASVKVSCKASGYTFTNFGISWVRQAPGQGLEWMGWISAFNGHTDYSQKVQGRVTMTTDTSTSTAYMELRSLRSDDTAVFYCARSHYYGSGSPFDYWGQGTLVTVSS
VL: B5 VL with S31N, G65S, Q89H, N92K, F94Y, P96W
notes: also called TH1016-098; PC1016-098
In test [4], B6 returned an EC50 of 0.9 nM. For the same molecule, the IC50 in test [5] came out at 0.0135 µg/mL.

B7: IgG1-1016-022 (antibody, V domains shown)
VH: QVQLVESGGGVVQPGRSLRLSCAASGFTFSSYAMHWVRQAPGKGLEWVAVISYDGSNKYYADSVKGRFTISRDNSKNTLYLQMNSLRAEDTAVYYCARELLWFGELWGYFDLWGRGTLVTVSS
VL: B5 VL with L11V, Q38H, E41G, S46L, G65S, Q90E, Y91A, N92S, P95T, P96W
notes: also called TH1016-022; PC1016-022
In test [1], B7 gave an EC50 of 1.1 nM.

B8: anti-c-Met HuMab 006 (IgG1) (antibody, V domains shown)
VH: B5 VH with Y32F, F34I, S52F, I57T, S84T, W104S, P105A, T107A, I118T
VL: B5 VL with G65S, F94Y
notes: also called TH1016-006; PC1016-006
Turning to B8, the EC50 in test [1] was 1.92 nM; in test [6], 2.32 nM.

B9: anti-c-Met HuMab 101 (IgG1) (antibody, V domains shown)
VH: QVQLVQSGGEVKKPGASVKVSCKASGYTFTRHGITWVRQAPGQGLEWMGWISADNGNTNYAQKFQDRVTMTTDTSTSTAYMELRSLRSDDTAVYFCARVFRYFDWLLPYFDYWGQGTLVTVST
VL: not shown
B9 had an EC50 in test [4] of 1.03 nM. In test [5], the IC50 came to 0.0558 µg/mL.

B10: IgG1-1016-069 (antibody, V domains shown)
VH: QVQLVQSGAEVKKPGASVKVSCETSGYTFTSYGISWVRQAPGHGLEWMGWISAYNGYTNYAQKLQGRVTMTTDTSTSTAYMELRSLRSDDTAVYYCARDLRGTNYFDYWGQGTLVTVSS
VL: DIQMTQSPSSVSASVGDRVTITCRASQGISNWLAWFQHKPGKAPKLLIYAASSLLSGVPSRFSGSGSGTDFTLTISSLQPEDFATYYCQQANSFPITFGQGTRLEIK
notes: also called clone 069; TH1016-069
B10: the 50% effective concentration (EC50) in test [7] was 0.0495 µg/mL and 0.0454 µg/mL; in test [4], 0.547 nM. Besides, in test [5], the IC50 stood at 0.0267 µg/mL.

B11: anti-c-Met HuMab 181 (IgG1) (antibody, V domains shown)
VH: B10 VH with E23K, T24A, H43Q, A53T, N104A
VL: B10 VL with F36Y
notes: also called TH1016-181; PC1016-181
The molecule B11 yielded an EC50 in test [4] of 0.679 nM. The IC50 in test [5] amounted to 0.0103 µg/mL.
